Measured values from patent US20160060340A1.

What was measured:
FOLR1-mycHis (human) [1] = target: FOLR1-mycHis (human) (UniProt P15328); test: SPR (Biacore T100), antibody captured on CM5 chip, FOLR1-mycHis as analyte, single-cycle kinetics, 1:1 binding model
FOLR1-mycHis (human) [2] = target: FOLR1-mycHis (human) (UniProt P15328); test: SPR as in Example 29, antibody captured, FOLR1-mycHis as analyte

Sequence of FOLR1-mycHis (human) (P15328 25-233): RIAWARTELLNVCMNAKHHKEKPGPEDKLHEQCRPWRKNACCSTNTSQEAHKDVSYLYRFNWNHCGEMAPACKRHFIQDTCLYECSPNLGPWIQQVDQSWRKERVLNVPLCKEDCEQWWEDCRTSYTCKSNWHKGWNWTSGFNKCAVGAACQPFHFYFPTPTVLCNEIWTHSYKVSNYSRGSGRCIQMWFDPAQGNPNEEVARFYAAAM

| Substance | Kd (FOLR1-mycHis (human) [1]) [nM] | affinity as percent of that of HuRA15-7CTAcc antibody (FOLR1-mycHis (human) [2]) [%] |
| --- | --- | --- |
| MOv18 antibody (ALEXIS BIO…) | 92 | – |
| LK26 antibody (GeneTex) | 66 | – |
| MORAb-003DF antibody | – | 1.1 |
